This series is described as follows: soluble on expression in E. coli; label from the status in PepcDB or PDB records.
As for “MSFSDHFSAVAASYAKARPRYPQRWFRYLARIVPDRQRVWDCATGNGQAAIALAEYFSEVIGSDASAAQVRQARSHPRVQYLVFPAEATPLAPASLDLITVAQAAHWFDLPQFYIEAQRLLRPGGVIALWGYGLGSLNPAIDHVFNHFYRDWLDPYWPPERQWVEQAYEGLSFPFEPLPTPTFSMQCDWTLFDLLAYLRTWSGVQQFQRQRGFDPVWAIAPELQRVWGDPQRYRRITWPLFAKVGRWQPLEHHHHHH”, the “soluble on expression in E. coli” value is “soluble”.
“MGSDKIHHHHHHMSDSFDVLWLNASPILKRFDKPLLDYLSGYMRIAQWEYQQTKDEASSIDQAVELLHNFLEWRDRPVHLAGHGMSGAIALTFARRFPQKVRSLTLLSVAAQPANNWQAHYYFQRQLFSISRELVLASTVRSLFGNQPPHTTKKLVAALDKDLEQSPSQHSLFKLVYLPKGGVSMPMMVCGSKSDPVVNPTVLHDWLNWLKPEDKLWECPQGYHFFHYFYPQQVGEEILSFWKRHPSHLLEASALSFSTSTN”: the “soluble on expression in E. coli” value was “not soluble”.
With “MAYTLATHTAGVIPAGKLERVDPTTVRQEGPWADPAQAVVQTGPNQYTVYVLAFAFGYQPNPIEVPQGAEIVFKITSPDVIHGFHVEGTNINVEVLPGEVSTVRYTFKRPGEYRIICNQYCGLGHQNMFGTIVVKE”, the “soluble on expression in E. coli” value was “soluble”.
The result for “MKFLRIEDEVIYSKKRYKLKREIDKLFLDEEYFQIEPQLFEEYDEFTTINNKIPEESMVKVVNGKVMVLRADITTSIIKSLVPRWEDGLKLKLFYNSSIYKNKNTVGIKEIRQIGCEYLGEASVEADREVVKLALKILEKYNNNFILEVGSSKYIHGLLEELNLNKNCENQIKNLLYTKNTHELKVYIEELKIKHEVKELLSNILSLQGNLYNVIEKSNKFYCNNKMKQALEELKQVNNLIEECNFLDKARFDLSMITMLDYYEGIMFRGYYPNSYKEILSGGRYDSLTKEYGKEIPAIGFTLSVDELMKYVYK” reads “soluble”.
“MEINEKLLRQIIEDVLSEMKGSDKPVSFNAPAASAAPQATPPAGDGFLTEVGEARQGTQQDEVIIAVGPAFGLAQTVNIVGIPHKSILREVIAGIEEEGIKARVIRCFKSSDVAFVAVEGNRLSGSGISIGIQSKGTTVIHQQGLPPLSNLELFPQAPLLTLETYRQIGKNAARYAKRESPQPVPTLNDQMARPKYQAKSAILHIKETKYVVTGKNPQELRVAL”: the “soluble on expression in E. coli” value is “soluble”.
In the case of “MQKSIDDMINEVLAVKVEKLPKTQDFSDLQEVCASKLQIINKEMDEADRKLEETLEKRKLVEKQLEDLQEQYKVKEFAFSLQKEFQDELKKVAEEIF”, the “soluble on expression in E. coli” value is on record as “not soluble”.
As to “GGTSNEVAQFLSKENQVIVRMRGLPFTATAEEVVAFFGQHCPITGGKEGILFVTYPDGRPTGDAFVLFACEEYAQNALRKHKDLLGKRYIELFRSTAAEVQQVLNRFSSA”, the “soluble on expression in E. coli” value is “soluble”.
The entry for “MGSDKIHHHHHHMKTQYFSDVDETVITTTLSNGLRLQVVPRPAYHKSYAIMTTDYGSIDTQFAPDGKQMVTYPAGIAHFLEHKLFEKEDHDAFDLFGETGASANAFTSATKTSFLFSTTTQLTKNLQILLDFVQTPFFSKASVAKEQGIIGSEIQMYQDDPGWRGYAGLLENLFPNHPAHVDVAGTVASIAQITPEMLYTIHRVFYQPSNMTLIVVGNIDADAIMAFVAANQAAKQFPAPQAIVRGVHADLQTDDIVPYRQLEMPISRPKTLVGIKGQVAIPMTAEGWRYQLTIRLLLEVLFGDSSQLYQDWYDRGLIDDSFDFDFTNQRSFSYGLVGGDTDDPHALSDAIKHVLLNAATQPDLTRDRVALIKRASLGKYYAGLNGLNGVANQLSALSFGQASLFDFPEILSSITLADLQAMIDQVFQAKALTVLDMIPEAD” is “not soluble”; for “MNMKNELHVISNGHMPFEELVNVAMQIESEIDYLHIREREKSTKELYEGVESLLMEGFPASKIVINDRIDIAILLNIPRVQLGYRSTDVKSVKEKFSYLHVGYSVHSLDEAIVAFKNGADSLVYGHVFPTDCKKGVPARGLEEISDIARCLSIPITAIGGITPENTVDVLTNGVSGIAVMSGIVSSSNPYSKAKSYKESIRKWAEKHV” it is “not soluble”.
Turning to “MSRGSGILPDESMFAEFKRQCLSTENWVNKYDKNDMEVWVEQAPLSASINNKGNYSKVHKIRCQINIKDVSAATMYDVLHDGQYRKTWDPTMLESFDIARLAHNADVGYYSWICPKPLKNRDVVTLRSWQASENEYVIINFSVKHPKYPPRKDLVRAVSLMTGYLIKPTGPQSCIFTYLSQADPKGSLPKWVVNKASQVLAPKVLRSAHKAGQNYPAWKAANSPDHKPWLYPIQSELAMMDPAELSIQRGDSLENVDESSTRDAQENEDSS”, the “soluble on expression in E. coli” value is “not soluble”.

The record behind these values is the DeepSol protein solubility set.
